From US7063946B2, “Methods, reagents, kits and apparatus for protein function analysis” (Meso Scale Technologies, LLC., priority 2001, dated 2006)

Tests used:
Assay type in all cases: biochemical
pEY (poly Glu-Tyr) = test: Tyrosine kinase activity assay of immobilized in vitro translated protein towards pEY
Experimental: Proteins were produced in an in vitro transcription and translation reaction. […] The unbound components of the reaction containing endogenous kinases were removed by three washes with TT-buffer (25 mM Tris-HCl buffer pH 7.4 and 0.004% Triton), two five minutes washings with high-salt wash buffer (25 mM Tris-HCl buffer pH 7.4, 0.004% Triton, 1M NaCl and 5 mM DTT) and 3 more washes with TT-buffer. To these immobilized and purified proteins a tyrosine kinase substrate, 5 nM pEY (poly Glu-Tyr, Sigma, MO), was added in a 50 μl reaction solution containing 5 mM MgCl2, 5 mM MnCl2, 100 μM ATP, 25 mM Tris-HCl buffer pH 7.4, 0.05 mM Na3VO4, 0.004% TritonX-100, 2 mM DTT and EDTA-free protease inhibitor (Roche Molecular Biochemicals). This mixture was incubated with shaking at room temperature overnight to allow phosphorylation of the pEY substrate by the immobilized kinases. Following this incubation, 45 μl of this mixture was transferred to a streptavidin or avidin-coated NPT IPR plate coated with biotinylated anti-phosphotyrosine antibody (PY20, Zymed labs, CA) followed by incubation for 30 minutes at room temperature to allow the binding of the phosphorylated pEY substrate to the PY20 coated NPT plate. Following this binding step, 50 ng Sulfo-TAG labeled anti-phosphotyrosine in buffer containing 25 mM Tris-HCl buffer pH 7.4, 5 mM MgCl2, 0.05 mM Na3VO4, 0.004% TritonX-100, 2 mM DTT and 0.05% IgG was added followed by incubation at room temperature for 30 mm. The unbound reagents were removed by one time washing with water, and the TAG label was detected in presence of 150 μl IPR assay buffer (0.4 mM Gly-Gly buffer, pH 7.8, 1 mM EDTA, 0.1 M TPA). The ECL signals were measured using an imaging plate reader.

[1] = system: autophosphorylation (phosphotyrosine); test: In vitro kinase library screen: autophosphorylation
Outline: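 ECL read-out after 45 min with Sulfo-TAG anti-phosphotyrosine antibody. Before that, immobilized in vitro-translated biotinylated SYK or EphA7 autophosphorylated overnight at room temperature in Tris pH 7.4 containing 100 μM ATP plus Mn++ and Mg++ (5 mM each).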

pEY = test: In vitro kinase library screen: activity towards pEY; conditions: 5 ul of expressed protein
Outline: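 ECL read-out: phosphorylated poly(Glu-Tyr) bound on a PY20-coated plate, then probed with Sulfo-TAG-labelled anti-phosphotyrosine. The reaction beforehand ran overnight at room temperature with 100 µM ATP, 5 mM MgCl2, 5 mM MnCl2 and 5 nM pEY substrate. Enzymes were TnT-expressed, biotinylated and immobilised, with stringent washes.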

B1: 4485050: IMAGE clone protein: Fert2, fer (fms/fps related) protein kinase, testis specific 2 (protein, UniProt P70451 1-823, looked up)
Tyrosine-protein kinase Fer: MGFGSDLKNSQEAVLKLQDWELRLLETVKKFMALRIKSDKEYAYTLQNLCNQVDKESTVQVNYVSNVSKSWLLMIQQTEQLSRIMKTHAEDLNSGPLHRLTMMIKDKQQVKKSYVGIHQQIEAEMIKVTKTELEKLKSSYRQLIKEMNSAKEKYKEALAKGKETEKAKERYDKATMKLHMLHNQYVLALKGAQLHQSQYYDTTLPLLLDSVQKMQEEMIKALKGIFDDYSQITSLVTEEIVNVHKEIQMSVEQIDPSTEYNNFIDVHRTTAAKEQEIEFDTSLLEENENLQANEIMWNNLTADSLQVMLKTLAEELTQTQQMLLHKEAAVLELEKRIEESFETCEKKSDIVLLLGQKQALEELKQSVQQLRCTEAKCAAQKALLEQKVQENDGKEPPPVVNYEEDARSVTSMERKERLSKFESIRHSIAGIIKSPKSVLGSSTQVCDVISVGERPLAEHDWYHGAIPRIEAQELLKQQGDFLVRESHGKPGEYVLSVYSDGQRRHFIIQFVDNLYRFEGTGFSNIPQLIDHHFNTKQVITKKSGVVLLNPIPKDKKWVLNHEDVSLGELLGKGNFGEVYKGTLKDKTPVAIKTCKEDLPQELKIKFLQEAKILKQYDHPNIVKLIGVCTQRQPVYIIMELVPGGDFLTFLRKRKDELKLKQLVRFSLDVAAGMLYLESKNCIHRDLAARNCLVGENNTLKISDFGMSRQEDGGVYSSSGLKQIPIKWTAPEALNYGRYSSESDVWSFGILLWETFSLGVCPYPGMTNQQAREQVERGYRMSAPQNCPEEVFTIMMKCWDYKPENRPKFNDLHKELTVIKKMIT
What does the source list for B1?
fold higher ECL signal than background produced by Mock (Luciferase) (pEY (poly Glu-Tyr); 0.5 to 1 μl of TnT reaction): 1000 to 1100 fold; ECL signal (pEY (poly Glu-Tyr); +EDTA): 1,287; ECL signal (pEY (poly Glu-Tyr); Control (Table 9)): 1,637,307; ECL signal (pEY (poly Glu-Tyr); DNA 0.001 μg/5 μl): 4,432; ECL signal (pEY (poly Glu-Tyr); DNA 0.003 μg/5 μl): 129,797; ECL signal (pEY (poly Glu-Tyr); DNA 0.010 μg/5 μl): 1,440,103; ECL signal (pEY (poly Glu-Tyr); DNA 0.020 μg/5 μl): 1,463,489; ECL signal (pEY (poly Glu-Tyr); DNA 0.040 μg/5 μl): 1,523,121; ECL signal (pEY (poly Glu-Tyr); DNA 0.060 μg/5 μl): 1,553,370; ECL signal (pEY (poly Glu-Tyr); DNA 0.080 μg/5 μl): 1,608,671; ECL signal (pEY (poly Glu-Tyr); DNA 0.100 μg/5 μl): 1,687,039; ECL signal (pEY (poly Glu-Tyr); DNA 0.125 μg/5 μl): 1,626,868; ECL signal (pEY (poly Glu-Tyr); complete reaction): 1,608,671; ECL signal (pEY (poly Glu-Tyr); no Mg, no Mn): 2,851; ECL signal (pEY (poly Glu-Tyr); plasmid +, no pEY): 1,309; ECL signal (pEY (poly Glu-Tyr); plasmid +, no tRNA): 1,752; ECL signal [1]: 1,350,546; HTS signal (pEY): 952,661
